Source: patent US20250289849A1, “PEPTIDE TO TREAT ALPHA-SYNUCLEIN AMYLOID BASED DISORDERS” (COUNCIL OF SCIENTIFIC & INDUSTRIAL RESEARCH, priority 2022, published 2025)
Where no end group is shown, it is not given here.

Biological target: T1, human wild-type α-synuclein (Homo sapiens, UniProt P37840)
T1 construct: made in house; host or cells: E. coli Rosetta(DE3), pT7-7 based expression vector
Test: In vitro fibrillation assay (Thioflavin T fluorescence)
Assay type: biochemical
Conditions: for inhibition of α-synuclein fibrillation (reduction in ThT fluorescence, in words): FIG. 3, α-synuclein 400 μM, equimolar peptide, 37° C., observed upto 6 hr; for increase in α-synuclein fibrillation (fluorescence intensity), compared to penetratin: FIG. 4A, zoomed Y-axis of FIG. 3 data; for normalized ratio of ThT fluorescence amplitude at 5 h versus 0 h, compared with SEQ.ID.-4: FIG. 4B
Experimental: FIG. 1. […] The α-synuclein fibrillation was monitored using ThioflavinT (ThT), a dye that specifically binds to amyloids. The binding of ThT results in increase of its fluorescence intensity at 482 nm. Purified α-synuclein (400 μM) was incubated at 37° C. with shaking in the presence and absence of equimolar concentration of indicated peptides. Amyloid formation was determined by monitoring ThT fluorescence at different time intervals.
FIG. 3. […] The α-synuclein fibrillation was monitored using ThioflavinT (ThT) dye, which specifically binds to amyloids, with its subsequent increase in fluorescence intensity recorded at 482 nm. The purified α-synuclein (400 μM) was incubated at 37° C. with shaking, in the presence and absence of equimolar concentration of indicated peptides. Amyloid formation was determined by monitoring ThT fluorescence at different time intervals.
FIG. 4A. The inhibition of α-synuclein fibrillation in the presence of different peptides as indicated by SEQ.IDs. The data is same as in FIG. 3A except that only the enhanced (zoomed) Y-axis for α-synuclein fibrillation in the presence of peptides is shown for clarity.
FIG. 4B. The ratio of the amplitude at 5 h versus 0 h for each of the curve was calculated and normalized.
Thioflavin T (ThT) (4 mM) was added to 400 μM of purified α-synuclein with and without Cell penetrating peptides at equimolar concentration in a 96 microwell plate. The plate was incubated at 37° C. with a shaking speed of 900 rpm in linear mode in a multimode plate reader (TECAN infinite M200 PRO). Fluorescence kinetics was measured after every 15 minutes with emission wavelength of 482 nm upon excitation at 442 nm. Each experiment was repeated at least three times.

Row | inhibition of α-synuclein fibrillation (reduction in ThT fluorescence, in words) | Substance | increase in α-synuclein fibrillation (fluorescence intensity), compared to penetratin | normalized ratio of ThT fluorescence amplitude at 5 h versus 0 h, compared with SEQ.ID.-4
1 | inhibits α-synuclein fibrillation | SEQ.ID.-6: Cyclic derivative synthesized by introducing Cys residue at N-terminal and C-terminal of SEQ.ID.-4 sequence (CRQIKIWFQNRRMKWKKC; not fully specified (bridges); cysteine pairing not given here) | – | –
2 | inhibits α-synuclein fibrillation | SEQ.ID.-7: shorter truncated version of SEQ.ID.-4, further cyclized (CKIWFQNRRMKC; not fully specified (bridges); also: cyclized, mode not given here) | did not allow increase in α-synuclein fibrillation | significantly better inhibitor of fibrillation than of SEQ.ID.-4
3 | inhibits α-synuclein fibrillation | SEQ.ID.-8: shorter and cyclized derivative of SEQ.ID.-4 with an additional mutation (CKIWFANRRMKC; not fully specified (bridges); also: cyclized, mode not given here) | did not allow increase in α-synuclein fibrillation | significantly better inhibitor of fibrillation than of SEQ.ID.-4
